Molecular target: the molecule itself
Assay: crystal structure; Se-Met MJ0391 (28 mg/mL), sitting-drop vapor diffusion at 293 K, 50%(v/v) PEG-400, 0.1 M MES pH 6.0; MAD, refined at 2.3 Å; two NCS molecules in the asymmetric unit, tetramer generated by the crystallographic 2-fold axis

B1: hypothetical protein MJ0391 from Methanocaldococcus jannaschii (putative CbiT) (enzyme, Methanocaldococcus jannaschii DSM 2661)
chain: MKYMIPDEEFIRREGVPITKEEIRAVSIGKLNLNKDDVVVDVGCGSGGMTVEIAKRCKFVYAIDYLDGAIEVTKQNLAKFNIKNCQIIKGRAEDVLDKLEFNKAFIGGTKNIEKIIEILDKKKINHIVANTIVLENAAKIINEFESRGYNVDAVNVFISYAKKIPSGHMFLAKNPITIIKAVR
modifications: selenomethionine in place of methionine (Se-Met protein; Mse4 and Mse169 are printed)
notes: MJ0391 protein, putative CbiT (cobalt-precorrin-7 C15-methyltransferase / C12-decarboxylase), Methanocaldococcus jannaschii DSM 2661; gene amplified from genomic DNA and cloned into pET-21a; 183 amino acid residues and 21 kDa per monomer; residues 1-3 are not seen in the final model
stoichiometry N: 4

From article PMC3672029 (BMC Structural Biology, 2013)
